Test results reported in article PMC3712460.
Residue numbers refer to the chain shown, from its start. Numbers in names are those of the source. One block for each molecule: values may come before it.

What was measured:
Test in all cases: ITC
[1] = biological target: NapA signal peptide (Escherichia coli) (UniProt P33937); settings: cited from earlier work
[2] = biological target: ϕMalE-NapAsp^His M9Q (E. coli)
[3] = biological target: ϕMalE-NapAsp^His R6Q (E. coli)
[4] = biological target: ϕMalE-NapAsp^His K10Q (E. coli)
[5] = biological target: ϕMalE-NapAsp^His A17Q variant (E. coli)
[6] = biological target: ϕMalE-NapAsp^His (E. coli)

Molecule: NapD (from UniProt P0A9I5)
- Kd [1]: 7 nM

- Kd, population 1 (two sites) [2]: 1 nM
- Kd, population 2 (two sites) [2]: 75 nM
- N, population 1 (two sites) [2]: 0.13
- N, population 2 (two sites) [2]: 0.65
- Kd [3]: 725 nM
- stoichiometry N [3]: 0.6
- Kd [4]: 1300 nM
- stoichiometry N [4]: 0.33
- Kd [5]: 1100 nM
- stoichiometry N [5]: 0.16
- Kd, population 1 (two sites) [6]: 3 nM
- Kd, population 2 (two sites) [6]: 143 nM
- N, population 1 (two sites) [6]: 0.35
- N, population 2 (two sites) [6]: 0.64
B1: NapD^His (natural protein)
chain: MHTNWQVCSLVVQAKSERISDISTQLNAFPGCEVAVSDAPSGQLIVVVEAEDSETLIQTIESVRNVEGVLAVSLVYHQQEEQGEETP

- Kd [5]: 833 nM
- stoichiometry N [5]: 1.11
- Kd [6]: 313 nM
- stoichiometry N [6]: 0.83
B2: NapD A71T (NapD^His variant) (natural protein)
chain: B1 chain with A71T

- Kd [5]: 633 nM
- stoichiometry N [5]: 0.57
- Kd [6]: 328 nM
- stoichiometry N [6]: 0.81
B3: NapD T59I (NapD^His variant) (natural protein)
chain: B1 chain with T59I

- Kd, population 1 (two sites) [5]: 12 nM
- Kd, population 2 (two sites) [5]: 218 nM
- N, population 1 (two sites) [5]: 0.3
- N, population 2 (two sites) [5]: 0.69
- Kd [6]: 571 nM
- stoichiometry N [6]: 0.91
B4: NapD A14T/A71T (NapD^His variant) (natural protein)
chain: B1 chain with A14T, A71T

- Kd, population 1 (two sites) [5]: 14 nM
- Kd, population 2 (two sites) [5]: 704 nM
- N, population 1 (two sites) [5]: 0.29
- N, population 2 (two sites) [5]: 0.62
- Kd [6]: 806 nM
- stoichiometry N [6]: 0.97
B5: NapD I19F (NapD^His variant) (natural protein)
chain: B1 chain with I19F

- Kd, population 1 (two sites) [5]: 22 nM
- Kd, population 2 (two sites) [5]: 261 nM
- N, population 1 (two sites) [5]: 0.25
- N, population 2 (two sites) [5]: 0.65
- Kd [6]: 935 nM
- stoichiometry N [6]: 0.39
B6: NapD I19F/T59I (NapD^His variant) (natural protein)
chain: B1 chain with I19F, T59I

- Kd [5]: 1870 nM
- Kd [6]: 763 nM
- stoichiometry N [6]: 0.7
B7: NapD A14T (NapD^His variant) (natural protein)
chain: B1 chain with A14T
